Seven molecules from patent publication US20210122805A1 (Bristol-Myers Squibb, published 2021) can be followed below.

The target in test [1] is VEGFR2 fusion protein (extracellular domain of hVEGFR2 and intracellular domain of hEpoR) on Ba/F3 cells (human) (UniProt P35968). As to the kind of experiment: cell-based or functional assay.
Test [2] has as its target T1, human PCSK9 (human, UniProt Q8NBP7 31-692).
T1 construct: also called hPCSK9; recombinant human PCSK9
As to the kind of experiment: PCSK9:ATI-972 FRET competition assay, 5 nM human PCSK9; competitor biotinylated ATI-972. From the text: (§1) Two fluorescence resonance energy transfer (FRET) based assays were used to determine the competitive binding potency of PRD460 and other adnectins to hPCSK9. The PCSK9:EGFA FRET assay measures the binding of PCSK9 to the LDLR, using a soluble epidermal growth factor precursor homology domain-A (EGFA) peptide and recombinant human PCSK9.

The target of test [3] is T1, human PCSK9. In words: SPR (Biacore), 10Fn3 protein or Fc fusion captured by anti-His or anti-human antibody, target in flow, 25 C, 1:1 fit. As to the method:
(§2) The binding properties of Fc-¹⁰Fn3 fusion proteins and non-Fc ¹⁰Fn3 proteins were characterized by Surface Plasmon Resonance (SPR). Anti-human or anti-Histidine antibody was immobilized on a Biacore chip, and ¹⁰ Fn3 proteins and Fc-¹⁰Fn3 fusions were captured on the chip surface. Varying concentrations of target were placed into the flow solution using MgCl2 (3 M) for chip regeneration between cycles. Kinetic determinations were performed at 25° C. Evaluation of the kinetic parameters was performed using the 1:1 binding algorithm on the Biacore Evaluation software.

For test [4], the target named is T1, human PCSK9. As to the kind of experiment: cell-based or functional assay.
Test [5] addresses T1, human PCSK9. As to the kind of experiment: PCSK9:EGFA FRET competition assay, 5 nM PCSK9; competitor EGFA peptide.
Source text: as §1

Test [6] concerns the target T1, human PCSK9. In words: SPR (Biacore), ATI-1081 captured by anti-His antibody, hPCSK9 in flow, 25 C, 1:1 fit. The procedure: The binding characteristics were characterized by Surface Plasmon Resonance (SPR). […] Varying concentrations of hPCSK9 were placed into the flow solution using MgCl2 (3 M) for chip regeneration between cycles. […] Duplicate experiments for PRD460 were performed on different days. Kinetic determinations were performed at 25° C. Evaluation of the kinetic parameters was performed using the 1:1 Binding algorithm on the Biacore Evaluation software.

A further test addresses VEGFR2 (Homo sapiens (Human), UniProt P35968 20-764). As to the kind of experiment: SPR (Biacore), 10Fn3 protein or Fc fusion captured by anti-His or anti-human antibody, target in flow, 25 C, 1:1 fit. The procedure: as §2
Test [7] has as its target T1, human PCSK9. In words: PCSK9:ATI-972 FRET assay, 5 nM human PCSK9; displaced competitor: biotinylated ATI-972.

Consider CT322 (designed binder), for which, in test [1], the IC50 (nM), Ba/F3 proliferation assay stood at 7.96 nM and the Relative Potency, Ba/F3 proliferation assay was 1.

B1: ATI-1114 (designed binder)
chain: MGVSDVPRDLEVVAATPTSLLISWVPPSDDYGYYRITYGETGGNSPVQEFTVPIGKGTATISGLKPGVDYTITVYAVEFPWPHAGYYHRPISINYRTGSGCHHHHHH
modifications: pegylated (site and PEG size not stated)
By EC50 is commonly meant the concentration needed to bring the measured effect to its halfway point. Low readings indicate an effect from little substance, high ones a need for much substance. Take B1: the EC50 in the test with human PCSK9 [2] came out at 0.8 nM.

B2: ATI-1081 (designed binder)
chain: MGVSDVPRDLEVVAATPTSLLISWVPPSDDYGYYRITYGETGGNSPVQEFTVPIGKGTATISGLKPGVDYTITVYAVEFPWPHAGYYHRPISINYRTEIDKPSQHHHHHH
notes: No Fc
One may read the Kd as the free concentration of one partner at which half of the binding sites on the other are occupied at equilibrium, for simple one-to-one binding. Higher therefore signals a looser complex. For orientation: koff means a measure of how fast the partners let go of each other. Read a high koff as fast dissociation. As a reminder, the kon is the rate constant with which the complex forms. With B2, the Kd with human PCSK9 [3] and in the test with human PCSK9 [6] was 6.7 nM in each case. For the same molecule, the off-rate constant (koff) in the test with human PCSK9 [3] and in the test with human PCSK9 [6] was 0.000245 s⁻¹ throughout. Besides, the kon with human PCSK9 [3] and with human PCSK9 [6] was 36500 M⁻¹ s⁻¹ throughout. Besides, the “EC50 of inhibition of PCSK9-induced LDLR depletion from HepG2 cell surface (FACS)” value in the test with human PCSK9 [4] was 9 nM. Moreover, the 50% effective concentration (EC50) with human PCSK9 [5] was determined as 3.7 nM; with human PCSK9 [2], 2.8 nM.

B3: C7FL (designed binder)
chain: VSDVPRDLEVVAATPTSLLISWRHPHFPTRYYRITYGETGGNSPVQEFTVPLQPPTATISGLKPGVDYTITVYAVTDGRNGRLLSIPISINYRT
notes: No Fc; anti-VEGFR2 10Fn3; not shown: the N-terminal extension, C-terminal tail and His tag of the non-Fc C7FL protein, none of which is stated for it
Turning to B3, in the test with VEGFR2, the affinity, expressed as Kd, was 11.5 nM; the koff is 0.000236 s⁻¹; the kon was determined as 20500 M⁻¹ s⁻¹.

B4: 1784F03 (designed binder, from a related filing)
chain: MGVSDVPRDLEVVAATPTSLLISWRPPIHAYGYYRITYGETGGNSPVQEFTVPIVEGTATISGLKPGVDYTITVYAVEYTFKHSGYYHRPISINYRTEIDKPSQHHHHHH
In the test with human PCSK9 [3], B4 yielded a Kd of 34.5 nM, a koff of 0.000396 s⁻¹ and a kon of 11500 M⁻¹ s⁻¹. The IC50, HepG2 depletion inhibition with human PCSK9 [4] was determined as 13.2 nM.

B5: 1813E02 (designed binder, from a related filing)
chain: MGVSDVPRDLEVVAATPTSLLISWSPPANGYGYYRITYGETGGNSPVQEFTVPVGRGTATISGLKPGVDYTITVYAVEYTYKGSGYYHRPISINYRTEIDKPSQHHHHHH
For B5, in the test with human PCSK9 [3], the dissociation constant Kd was determined as 22.2 nM, the koff is 0.000388 s⁻¹ and the kon worked out at 17500 M⁻¹ s⁻¹. Further, the IC50, HepG2 depletion inhibition with human PCSK9 [4] amounted to 10.6 nM.

B6: ATI-1174 (designed binder)
chain: MGVSDVPRDLEVVAATPTSLLISWVPPSDDYGYYRITYGETGGNSPVQEFTVPIGKGTATISGLKPGVDYTITVYAVEFPWPHAGYYHRPISINYRTEIEKPCQ
modifications: pegylated (site and PEG size not stated)
notes: also called pegylated anti-PCSK9 Adnectin
In the case of B6, in the test with human PCSK9 [4], the “EC50 of inhibition of PCSK9-AF647 intracellular fluorescence in HepG2 cells” value stood at 10 nM and the “EC50 of inhibition of PCSK9-induced LDLR depletion from HepG2 cell surface (FACS)” value turned out to be 8 nM. For the same molecule, in the test with human PCSK9 [5], the EC50 was found to be 1.9 nM. The “IC50 (read off the curve)” value in the test with human PCSK9 [7] is about 0.9 nM.
